The source of these data is PMC3208561, “Phylogenetic and Complementation Analysis of a Single-Stranded DNA Binding Protein Family from Lactococcal Phages Indicates a Non-Bacterial Origin”.

The series concerns the target T1, Orf14bIL67 (phage SSB) (Lactococcus phage bIL67, UniProt Q38257 1-123).
T1 sequence: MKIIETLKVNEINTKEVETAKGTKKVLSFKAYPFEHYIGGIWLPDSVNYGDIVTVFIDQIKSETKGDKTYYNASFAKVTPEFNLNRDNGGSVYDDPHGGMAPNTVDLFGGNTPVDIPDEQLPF
Briefly: EMSA; 30°C; protein up to 100 nM, 0.5 nM DNA; 20 mM Tris-HCl pH 7.5, 25 mM KCl, 1 mM EDTA, 1 mM DTT, 2.5% glycerol, 0.3 mg/ml BSA; 10 min at 30 or 38°C; 5% native PAGE in 0.25x TBE at 4°C. To be noted: protein: recombinant; tags: IMPACT-CN (intein) purification; label: 5'-32P. (Mobility shift assays separate free from complexed probe on a gel.)

B1: 80-mer oligonucleotide (ssDNA)
DNA: TTTGTCGGTACTTTATATTCTCTTATTACTGGCTCGAAAATGCCTCTGCCTAAATTACATGTTGGCGTTGTTAAATATGGGGG
Regarding B1, the binding result is listed as “binds”.
